IntAct's records for PubMed 23770091

B1: Discoidin, CUB and LCCL domain-containing protein 2 (Homo sapiens), Q96PD2 (parent)
chain: MASRAVVRARRCPQCPQVRAAAAAPAWAALPLSRSLPPCSNSSSFSMPLFLLLLLVLLLLLEDAGAQQGDGCGHTVLGPESGTLTSINYPQTYPNSTVCEWEIRVKMGERVRIKFGDFDIEDSDSCHFNYLRIYNGIGVSRTEIGKYCGLGLQMNHSIESKGNEITLLFMSGIHVSGRGFLASYSVIDKQDLITCLDTASNFLEPEFSKYCPAGCLLPFAEISGTIPHGYRDSSPLCMAGVHAGVVSNTLGGQISVVISKGIPYYESSLANNVTSVVGHLSTSLFTFKTSGCYGTLGMESGVIADPQITASSVLEWTDHTGQENSWKPKKARLKKPGPPWAAFATDEYQWLQIDLNKEKKITGIITTGSTMVEHNYYVSAYRILYSDDGQKWTVYREPGVEQDKIFQGNKDYHQDVRNNFLPPIIARFIRVNPTQWQQKIAMKMELLGCQFIPKGRPPKLTQPPPPRNSNDLKNTTAPPKIAKGRAPKFTQPLQPRSSNEFPAQTEQTTASPDIRNTTVTPNVTKDVALAAVLVPVLVMVLTTLILILVCAWHWRNRKKKTEGTYDLPYWDRAGWWKGMKQFLPAKAVDHEETPVRYSSSEVNHLSPREVTTVLQADSAEYAQPLVGGIVGTLHQRSTFKPEEGKEAGYADLDPYNSPGQEVYHAYAEPLPITGPEYATPIIMDMSGHPTTSVGQPSTSTFKATGNQPPPLVGTYNTLLSRTDSCSSAQAQYDTPKAGKPGLPAPDELVYQVPQSTQEVSGAGRDGECDVFKEIL

Assays:
crkl_human CRKL, P46109 = variants of: B1; conditions: with crkl_human CRKL
crkl_human CRKL, P46109, sequence (P46109 whole entry): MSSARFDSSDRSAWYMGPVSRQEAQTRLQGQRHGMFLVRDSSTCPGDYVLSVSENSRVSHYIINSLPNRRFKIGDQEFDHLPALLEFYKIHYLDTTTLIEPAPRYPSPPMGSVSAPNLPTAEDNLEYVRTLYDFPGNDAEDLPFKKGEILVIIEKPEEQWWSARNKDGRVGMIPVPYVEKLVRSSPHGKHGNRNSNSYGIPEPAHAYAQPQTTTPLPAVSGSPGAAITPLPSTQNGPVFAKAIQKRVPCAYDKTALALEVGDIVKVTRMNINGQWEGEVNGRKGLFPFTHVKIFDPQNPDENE

fyn_human FYN, P06241 = variants of: B1; conditions: with fyn_human FYN
fyn_human FYN, P06241, sequence (P06241 whole entry, looked up): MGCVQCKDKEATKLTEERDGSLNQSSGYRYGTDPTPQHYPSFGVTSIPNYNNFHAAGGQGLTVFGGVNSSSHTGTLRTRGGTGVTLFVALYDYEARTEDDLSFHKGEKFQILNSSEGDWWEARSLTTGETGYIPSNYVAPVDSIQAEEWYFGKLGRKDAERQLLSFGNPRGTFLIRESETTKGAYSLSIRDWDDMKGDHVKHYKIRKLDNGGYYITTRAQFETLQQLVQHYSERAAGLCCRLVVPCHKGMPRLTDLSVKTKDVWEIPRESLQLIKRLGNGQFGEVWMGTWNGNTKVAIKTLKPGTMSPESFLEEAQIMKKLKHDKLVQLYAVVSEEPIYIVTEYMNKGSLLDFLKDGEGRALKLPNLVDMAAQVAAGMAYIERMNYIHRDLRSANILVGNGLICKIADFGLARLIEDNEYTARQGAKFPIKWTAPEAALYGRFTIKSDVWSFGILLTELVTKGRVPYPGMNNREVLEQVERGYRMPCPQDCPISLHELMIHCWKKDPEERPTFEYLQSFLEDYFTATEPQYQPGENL

effect of a mutation on the interaction (crkl_human CRKL, P46109)	effect of a mutation on the interaction (fyn_human FYN, P06241)	Variant
disrupting interaction	disrupting interaction	Y666F
disrupting interaction	disrupting interaction	Y621F
disrupting interaction	disrupting interaction	Y750F
disrupting interaction	disrupting interaction	Y677F
disrupting interaction	disrupting interaction	Y655F
disrupting interaction	disrupting interaction	Y565F
disrupting interaction	disrupting interaction	Y732F
